Reference: patent publication US10047131B2, “Peptides and combination of peptides for use in immunotherapy against ovarian cancer and other cancers” (immatics biotechnologies GmbH, priority 2015, dated 2018)

Biological target: HLA-A*02:01 (Homo sapiens, UniProt P04439, D140Y/D185E/D98H/E176V/E277Q/G131W/G231S/I119V/I121R/I166T/I218V/L300P/L318F/N151K/N90K/P208A/P217A/Q86G/Q94H/R138H/R169H/T345S)
Assay: MHC binding assay (UV-ligand exchange, ELISA of exchange yield)
Conditions: binding to HLA-A*02:01, UV-ligand exchange
Method in brief: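 Peptide–MHC complexes made by UV-ligand exchange, where a UV-cleavable peptide is replaced by the test peptide. Exchange yield measured by ELISA: complexes diluted 100-fold on streptavidin-coated plates, stabilized complexes detected with HRP anti-β2m, TMB read at 450 nm.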

Substance | Peptide exchange (MHC class I binding score, peptide exchange yield)
560 (ALWDIETGQQTTT; listed as Homo sapiens) [compound 560] | “+++” (≥50 = +++)
561 (YLQLTQSEL; listed as Homo sapiens) [compound 561] | “+++” (≥50 = +++)
562 (YLEELPEKLKL; listed as Homo sapiens) [compound 562] | “+++” (≥50 = +++)
563 (WLLPYNGVTV; listed as Homo sapiens) [compound 563] | “+++” (≥50 = +++)
564 (TVTNAVVTV; listed as Homo sapiens) [compound 564] | “+++” (≥50 = +++)
565 (ALQETPTSV; listed as Homo sapiens) [compound 565] | “++” (≥20% = ++)
566 (VIADGGIQNV; listed as Homo sapiens) [compound 566] | “++” (≥20% = ++)
567 (SLLPLDDIVRV; listed as Homo sapiens) [compound 567] | “+++” (≥50 = +++)
568 (TLYDIAHTPGV; listed as Homo sapiens) [compound 568] | “++++” (≥75% = ++++)
569 (KLVDRTWTL; listed as Homo sapiens) [compound 569] | “+++” (≥50 = +++)
570 (ALANQIPTV; listed as Homo sapiens) [compound 570] | “++” (≥20% = ++)
571 (LLLTTIPQI; listed as Homo sapiens) [compound 571] | “+++” (≥50 = +++)
572 (ALADLIEKELSV; listed as Homo sapiens) [compound 572] | “+++” (≥50 = +++)
573 (ILVANAIVGV; listed as Homo sapiens) [compound 573] | “+++” (≥50 = +++)
574 (YLLQEPPRTV; listed as Homo sapiens) [compound 574] | “++” (≥20% = ++)
575 (YLISQVEGHQV; listed as Homo sapiens) [compound 575] | “+++” (≥50 = +++)
576 (ILLNNSGQIKL; listed as Homo sapiens) [compound 576] | “++++” (≥75% = ++++)
577 (VMFEDGVLMRL; listed as Homo sapiens) [compound 577] | “+++” (≥50 = +++)
578 (FLDPGGPMMKL; listed as Homo sapiens) [compound 578] | “+++” (≥50 = +++)
579 (NLMEMVAQL; listed as Homo sapiens) [compound 579] | “++” (≥20% = ++)
580 (LLMENAERV; listed as Homo sapiens) [compound 580] | “++” (≥20% = ++)

Substance | Peptide exchange (MHC class I binding score, peptide exchange yield)
582 (TLCDVILMV; listed as Homo sapiens) [compound 582] | “+++” (≥50 = +++)
583 (ILANDGVLLAA; listed as Homo sapiens) [compound 583] | “+++” (≥50 = +++)
584 (ALAEVAAMENV; listed as Homo sapiens) [compound 584] | “+++” (≥50 = +++)
585 (ALWDLAADKQTL; listed as Homo sapiens) [compound 585] | “++++” (≥75% = ++++)
586 (KLKPGDLVGV; listed as Homo sapiens) [compound 586] | “+++” (≥50 = +++)
587 (VMNDRLYAI; listed as Homo sapiens) [compound 587] | “+++” (≥50 = +++)
588 (SLLPLSHLV; listed as Homo sapiens) [compound 588] | “+++” (≥50 = +++)
589 (KLYPQLPAEI; listed as Homo sapiens) [compound 589] | “+++” (≥50 = +++)
590 (SLIEKLWQT; listed as Homo sapiens) [compound 590] | “++” (≥20% = ++)
591 (SMAELDIKL; listed as Homo sapiens) [compound 591] | “+++” (≥50 = +++)
592 (RLLSAAENFL; listed as Homo sapiens) [compound 592] | “+++” (≥50 = +++)
593 (GLPRFGIEMV; listed as Homo sapiens) [compound 593] | “+++” (≥50 = +++)
594 (IMLKGDNITL; listed as Homo sapiens) [compound 594] | “+++” (≥50 = +++)
595 (VLLSIYPRV; listed as Homo sapiens) [compound 595] | “+++” (≥50 = +++)
596 (ALLDQTKTLAESAL; listed as Homo sapiens) [compound 596] | “+++” (≥50 = +++)
597 (KLLEGQVIQL; listed as Homo sapiens) [compound 597] | “+++” (≥50 = +++)
598 (FLFPHSVLV; listed as Homo sapiens) [compound 598] | “+++” (≥50 = +++)
599 (YLLNDASLISV; listed as Homo sapiens) [compound 599] | “+++” (≥50 = +++)
600 (ALAAPDIVPAL; listed as Homo sapiens) [compound 600] | “+++” (≥50 = +++)
601 (SAFPFPVTV; listed as Homo sapiens) [compound 601] | “+++” (≥50 = +++)
602 (YLLEQIKLIEV; listed as Homo sapiens) [compound 602] | “++++” (≥75% = ++++)

Substance | Peptide exchange (MHC class I binding score, peptide exchange yield)
603 (FLIEPEHVNTV; listed as Homo sapiens) [compound 603] | “++” (≥20% = ++)
604 (SILDRDDIFV; listed as Homo sapiens) [compound 604] | “+++” (≥50 = +++)
605 (KLYEAVPQL; listed as Homo sapiens) [compound 605] | “+++” (≥50 = +++)
606 (ALWETEVYI; listed as Homo sapiens) [compound 606] | “+++” (≥50 = +++)
607 (RLYSGISGLEL; listed as Homo sapiens) [compound 607] | “+++” (≥50 = +++)
608 (SLLSVSHAL; listed as Homo sapiens) [compound 608] | “+++” (≥50 = +++)
609 (ALWKQLLEL; listed as Homo sapiens) [compound 609] | “+++” (≥50 = +++)
610 (LLAPTPYIIGV; listed as Homo sapiens) [compound 610] | “+++” (≥50 = +++)
611 (YLLDDGTLVV; listed as Homo sapiens) [compound 611] | “++++” (≥75% = ++++)
612 (YLYNEGLSV; listed as Homo sapiens) [compound 612] | “+++” (≥50 = +++)
613 (RLLPPGAVVAV; listed as Homo sapiens) [compound 613] | “+++” (≥50 = +++)
614 (LLLPDQPPYHL; listed as Homo sapiens) [compound 614] | “+++” (≥50 = +++)
615 (VLPPDTDPA; listed as Homo sapiens) [compound 615] | “++” (≥20% = ++)
616 (VLIDEVESL; listed as Homo sapiens) [compound 616] | “+++” (≥50 = +++)
617 (ALMYESEKVGV; listed as Homo sapiens) [compound 617] | “+++” (≥50 = +++)
618 (VLFDSESIGIYV; listed as Homo sapiens) [compound 618] | “+++” (≥50 = +++)
619 (ALQDRVPLA; listed as Homo sapiens) [compound 619] | “+++” (≥50 = +++)
620 (KLLNKIYEA; listed as Homo sapiens) [compound 620] | “++++” (≥75% = ++++)
621 (VLMDRLPSLL; listed as Homo sapiens) [compound 621] | “++++” (≥75% = ++++)
